How the values were obtained:
Test in all cases: cell-based or functional assay
[1] = molecular target: recombinant human VEGF165 (human, UniProt P15692 207-395)
[2] = molecular target: recombinant human PDGF-BB (human, UniProt P01127 82-190)
Target sequence in this assay (P01127 82-190 limits assumed): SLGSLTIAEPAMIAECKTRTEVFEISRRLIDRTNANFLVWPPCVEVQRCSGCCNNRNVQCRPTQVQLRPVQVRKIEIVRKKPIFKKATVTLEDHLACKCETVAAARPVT

[3] = molecular target: recombinant human PDGF-BB (human, UniProt P01127 82-190); remark: listed apart in the source
Target sequence in this assay (P01127 82-190 limits assumed): as above

Chain of recombinant human VEGF165 (P15692 other isoform, or with tags, fused parts or gaps limits assumed): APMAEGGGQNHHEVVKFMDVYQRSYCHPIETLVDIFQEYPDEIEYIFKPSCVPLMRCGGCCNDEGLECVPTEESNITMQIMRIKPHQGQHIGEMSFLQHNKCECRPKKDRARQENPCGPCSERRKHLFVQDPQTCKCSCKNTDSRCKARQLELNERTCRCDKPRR

Binder | Potency IC50 (nM) HMVEC-d hVEGF165 [1] [nM] | Potency IC50 (nM) NIH-3T3 hPDGF-BB [2] [nM] | hPDGF-BB IC50 (nM), hPDGF-BB-induced NIH-3T3 cell proliferation [3] [nM]
CL-33675_GS_4G8.5 (bispecific antibody, human IgG1, kappa, L234A L235A) heavy: EVTLRESGPALVKPTQTLTLTCTFSGFSLSTYGMGVGWIRQPPGKALEWLANIWWDDDKYYNPSLKNRLTISKDTSKNQVVLTMTNMDPVDTATYYCARIESSGPKYSFDYWGQGTMVTVSSGGGGSGGGGSEIQLVQSGSELKKPGASVKVSCKASGYTFTNYGMYWVRQAPGQGLEYMGWINTETGKPTYADDFKGRFVFSLDTSVSTAYLQISSLKAEDTAVYFCARTNYYYRSYIFYFDYWGQGTMVTVSSASTKGPSVFPLAPSSKSTSGGTAALGCLVKDYFPEPVTVSWNSGALTSGVHTFPAVLQSSGLYSLSSVVTVPSSSLGTQTYICNVNHKPSNTKVDKKVEPKSCDKTHTCPPCPAPEAAGGPSVFLFPPKPKDTLMISRTPEVTCVVVDVSHEDPEVKFNWYVDGVEVHNAKTKPREEQYNSTYRVVSVLTVLHQDWLNGKEYKCKVSNKALPAPIEKTISKAKGQPREPQVYTLPPSREEMTKNQVSLTCLVKGFYPSDIAVEWESNGQPENNYKTTPPVLDSDGSFFLYSKLTVDKSRWQQGNVFSCSVMHEALHNAYTQKSLSLSPGK light: EIVLTQSPGTLSLSPGERATLSCRASSGSIWYSFVSWYQQKPGQAPRLLIYADDQRASGIPDRFSGSGSGTDFTLTISRLEPEDFAVYYCQSYGINIDVVFGGGTKVEIKGGSGGGGSGGATQLTQSPSLSASVGDRVTITCRASESVSTHMHWYQQKPGKQPKLLIYGASNLESGVPSRFSGSGSGTDFTLTISSLQPEDFATYFCQQSWNDPFTFGQGTKLEIKRTVAAPSVFIFPPSDEQLKSGTASVVCLLNNFYPREAKVQWKVDNALQSGNSQESVTEQDSKDSTYSLSSTLTLSKADYEKHKVYACEVTHQGLSSPVTKSFNRGEC | 0.219 | 0.035 | 
1B10.1_GS_9E8.4 (bispecific antibody, human IgG1, kappa, L234A L235A) heavy: EVQLVESGGGLVQPGGSLRLSCAASGFSFSKYDMAWFRQAPGKGLEWVASITTSGVGTYYRDSVKGRFTVSRDNAKSTLYLQMNSLRAEDTAVYYCARGYGAMDAWGQGTTVTVSSGGGGSGGGGSEVTLRESGPALVKPTQTLTLTCTFSGFSLSTYGMGVGWIRQPPGKALEWLANIWWDDDKYYNPSLKNRLTISKDTSKNQVVLTMTNMDPVDTATYYCARIESIGTTYSFDYWGQGTMVTVSSASTKGPSVFPLAPSSKSTSGGTAALGCLVKDYFPEPVTVSWNSGALTSGVHTFPAVLQSSGLYSLSSVVTVPSSSLGTQTYICNVNHKPSNTKVDKKVEPKSCDKTHTCPPCPAPEAAGGPSVFLFPPKPKDTLMISRTPEVTCVVVDVSHEDPEVKFNWYVDGVEVHNAKTKPREEQYNSTYRVVSVLTVLHQDWLNGKEYKCKVSNKALPAPIEKTISKAKGQPREPQVYTLPPSREEMTKNQVSLTCLVKGFYPSDIAVEWESNGQPENNYKTTPPVLDSDGSFFLYSKLTVDKSRWQQGNVFSCSVMHEALHNAYTQKSLSLSPGK light: DIQMTQSPSSLSASVGDRVTITCKASQDIDDYLSWYQQKPGKSPKLVIYAATRLADGVPSRFSGSGSGTDYTLTISSLQPEDFATYYCLQSSSTPWTFGGGTKVEIKGGSGGGGSGGEFVLTQSPGTLSLSPGERATLSCERSSGDIGDSYVSWYQQKPGQAPRLVIYADDQRPSGIPDRFSGSGSGTDFTLTISRLEPEDFAVYYCQSYDINIDIVFGGGTKVEIKRTVAAPSVFIFPPSDEQLKSGTASVVCLLNNFYPREAKVQWKVDNALQSGNSQESVTEQDSKDSTYSLSSTLTLSKADYEKHKVYACEVTHQGLSSPVTKSFNRGEC | 0.127 | 0.678 | 
hBDI-9E8.1 (antibody, V domains shown) VH: EVTLRESGPALVKPTQTLTLTCTFSGFSLSTYGMGVGWIRQPPGKALEWLANIWWDDDKYYNPSLKNRLTISKDTSKNQVVLTMTNMDPVDTATYYCARIESIGTTYSFDYWGQGTMVTVSS VL: NFMLTQPHSVSESPGKTVTISCERSSGDIGDSYVSWYQQRPGSSPTTVIYADDQRPSGVPDRFSGSIDSSSNSASLTISGLKTEDEADYYCQSYDINIDIVFGGGTKLTVL |  |  | > 5
CL-33675_GS_1B10.1 (bispecific antibody, human IgG1, kappa, L234A L235A) heavy: EVTLRESGPALVKPTQTLTLTCTFSGFSLSTYGMGVGWIRQPPGKALEWLANIWWDDDKYYNPSLKNRLTISKDTSKNQVVLTMTNMDPVDTATYYCARIESSGPKYSFDYWGQGTMVTVSSGGGGSGGGGSEVQLVESGGGLVQPGGSLRLSCAASGFSFSKYDMAWFRQAPGKGLEWVASITTSGVGTYYRDSVKGRFTVSRDNAKSTLYLQMNSLRAEDTAVYYCARGYGAMDAWGQGTTVTVSSASTKGPSVFPLAPSSKSTSGGTAALGCLVKDYFPEPVTVSWNSGALTSGVHTFPAVLQSSGLYSLSSVVTVPSSSLGTQTYICNVNHKPSNTKVDKKVEPKSCDKTHTCPPCPAPEAAGGPSVFLFPPKPKDTLMISRTPEVTCVVVDVSHEDPEVKFNWYVDGVEVHNAKTKPREEQYNSTYRVVSVLTVLHQDWLNGKEYKCKVSNKALPAPIEKTISKAKGQPREPQVYTLPPSREEMTKNQVSLTCLVKGFYPSDIAVEWESNGQPENNYKTTPPVLDSDGSFFLYSKLTVDKSRWQQGNVFSCSVMHEALHNAYTQKSLSLSPGK light: EIVLTQSPGTLSLSPGERATLSCRASSGSIWYSFVSWYQQKPGQAPRLLIYADDQRASGIPDRFSGSGSGTDFTLTISRLEPEDFAVYYCQSYGINIDVVFGGGTKVEIKGGSGGGGSGGDIQMTQSPSSLSASVGDRVTITCKASQDIDDYLSWYQQKPGKSPKLVIYAATRLADGVPSRFSGSGSGTDYTLTISSLQPEDFATYYCLQSSSTPWTFGGGTKVEIKRTVAAPSVFIFPPSDEQLKSGTASVVCLLNNFYPREAKVQWKVDNALQSGNSQESVTEQDSKDSTYSLSSTLTLSKADYEKHKVYACEVTHQGLSSPVTKSFNRGEC | 0.265 | 0.11 | 
3E2.1_GS_4G8.5 (bispecific antibody, human IgG1, kappa, L234A L235A) heavy: EVQLVQSGAEVKKPGSSVKVSCKASGYTFTESYMYWVKQAPGQGLELIGRIDPEDGSTDYVEKFKNKATLTADKSTSTAYMELSSLRSEDTAVYFCARFGARSYFYPMDAWGQGTTVTVSSGGGGSGGGGSEIQLVQSGSELKKPGASVKVSCKASGYTFTNYGMYWVRQAPGQGLEYMGWINTETGKPTYADDFKGRFVFSLDTSVSTAYLQISSLKAEDTAVYFCARTNYYYRSYIFYFDYWGQGTMVTVSSASTKGPSVFPLAPSSKSTSGGTAALGCLVKDYFPEPVTVSWNSGALTSGVHTFPAVLQSSGLYSLSSVVTVPSSSLGTQTYICNVNHKPSNTKVDKKVEPKSCDKTHTCPPCPAPEAAGGPSVFLFPPKPKDTLMISRTPEVTCVVVDVSHEDPEVKFNWYVDGVEVHNAKTKPREEQYNSTYRVVSVLTVLHQDWLNGKEYKCKVSNKALPAPIEKTISKAKGQPREPQVYTLPPSREEMTKNQVSLTCLVKGFYPSDIAVEWESNGQPENNYKTTPPVLDSDGSFFLYSKLTVDKSRWQQGNVFSCSVMHEALHNAYTQKSLSLSPGK light: ETVLTQSPATLSLSPGERATLSCRASESVSTLMHWYQQKPGQQPRLLIYGASNLESGVPARFSGSGSGTDFTLTISSLEPEDFAVYFCQQSWNDPWTFGGGTKVEIKGGSGGGGSGGATQLTQSPSLSASVGDRVTITCRASESVSTHMHWYQQKPGKQPKLLIYGASNLESGVPSRFSGSGSGTDFTLTISSLQPEDFATYFCQQSWNDPFTFGQGTKLEIKRTVAAPSVFIFPPSDEQLKSGTASVVCLLNNFYPREAKVQWKVDNALQSGNSQESVTEQDSKDSTYSLSSTLTLSKADYEKHKVYACEVTHQGLSSPVTKSFNRGEC | 0.743 | 0.38 | 
9E10.6_GS_9E8.4 (bispecific antibody, human IgG1, kappa, L234A L235A) heavy: EVQLVQSGAEVKKPGSSVKVSCKASGYTFTNYGMYWVRQAPGQGLEWMGWIDTETGRPTYADDFKGRFTFTADKSTSTAYMELSSLRSEDTAVYYCARWSGDTTGIRGPWFAYWGQGTLVTVSSGGGGSGGGGSEVTLRESGPALVKPTQTLTLTCTFSGFSLSTYGMGVGWIRQPPGKALEWLANIWWDDDKYYNPSLKNRLTISKDTSKNQVVLTMTNMDPVDTATYYCARIESIGTTYSFDYWGQGTMVTVSSASTKGPSVFPLAPSSKSTSGGTAALGCLVKDYFPEPVTVSWNSGALTSGVHTFPAVLQSSGLYSLSSVVTVPSSSLGTQTYICNVNHKPSNTKVDKKVEPKSCDKTHTCPPCPAPEAAGGPSVFLFPPKPKDTLMISRTPEVTCVVVDVSHEDPEVKFNWYVDGVEVHNAKTKPREEQYNSTYRVVSVLTVLHQDWLNGKEYKCKVSNKALPAPIEKTISKAKGQPREPQVYTLPPSREEMTKNQVSLTCLVKGFYPSDIAVEWESNGQPENNYKTTPPVLDSDGSFFLYSKLTVDKSRWQQGNVFSCSVMHEALHNAYTQKSLSLSPGK light: DIRMTQSPSSLSASVGDRVTITCLASEDIYSDLAWYQQKPGKSPKLLIYNANGLQNGVPSRFSGSGSGTDYTLTISSLQPEDVATYFCQQYNYFPGTFGQGTKLEIKGGSGGGGSGGEFVLTQSPGTLSLSPGERATLSCERSSGDIGDSYVSWYQQKPGQAPRLVIYADDQRPSGIPDRFSGSGSGTDFTLTISRLEPEDFAVYYCQSYDINIDIVFGGGTKVEIKRTVAAPSVFIFPPSDEQLKSGTASVVCLLNNFYPREAKVQWKVDNALQSGNSQESVTEQDSKDSTYSLSSTLTLSKADYEKHKVYACEVTHQGLSSPVTKSFNRGEC | 0.049 | 1.14 | 
1E3.4_GS_3E2.1 (bispecific antibody, human IgG1, kappa, L234A L235A) heavy: EIQLVQSGSELKKPGASVKVSCKASGYPFTNSGMYWVKQAPGQGLEYMGWINTEAGKPTYADDFKGRFVFSLDTSVSTAYLQISSLKAEDTAVYFCARWGYISDNSYGWFDYWGQGTLVTVSSGGGGSGGGGSEVQLVQSGAEVKKPGSSVKVSCKASGYTFTESYMYWVKQAPGQGLELIGRIDPEDGSTDYVEKFKNKATLTADKSTSTAYMELSSLRSEDTAVYFCARFGARSYFYPMDAWGQGTTVTVSSASTKGPSVFPLAPSSKSTSGGTAALGCLVKDYFPEPVTVSWNSGALTSGVHTFPAVLQSSGLYSLSSVVTVPSSSLGTQTYICNVNHKPSNTKVDKKVEPKSCDKTHTCPPCPAPEAAGGPSVFLFPPKPKDTLMISRTPEVTCVVVDVSHEDPEVKFNWYVDGVEVHNAKTKPREEQYNSTYRVVSVLTVLHQDWLNGKEYKCKVSNKALPAPIEKTISKAKGQPREPQVYTLPPSREEMTKNQVSLTCLVKGFYPSDIAVEWESNGQPENNYKTTPPVLDSDGSFFLYSKLTVDKSRWQQGNVFSCSVMHEALHNAYTQKSLSLSPGK light: ATQLTQSPSSLSASVGDRVTISCRASEGVYSYMHWYQQKPGKQPKLLIYKASNLASGVPSRFSGSGSGTDFTLTISSLQPEDFATYFCHQNWNDPLTFGQGTKLEIKGGSGGGGSGGETVLTQSPATLSLSPGERATLSCRASESVSTLMHWYQQKPGQQPRLLIYGASNLESGVPARFSGSGSGTDFTLTISSLEPEDFAVYFCQQSWNDPWTFGGGTKVEIKRTVAAPSVFIFPPSDEQLKSGTASVVCLLNNFYPREAKVQWKVDNALQSGNSQESVTEQDSKDSTYSLSSTLTLSKADYEKHKVYACEVTHQGLSSPVTKSFNRGEC | 0.043 | 6.25 | 

From US20170015742A1 (published 2017)
